Assay results as given in paper PMC10843171.

Assays:
human FcRn (human) = human FcRn (human) (UniProt P55899); assay: not stated
[1] = target: cyno FcRn (cynomolgus monkey) (UniProt Q8SPV9); assay: not stated
[2] = target: PF-07209960, anti-human PD-1–IL15 mutein fusion protein (human); assay: SPR; Biacore T200; fusion protein captured via anti-human Fc on a CM4 chip, receptor injected as analyte; 37°C; 10 mM HEPES, 150 mM NaCl, 0.05% Tween-20, pH 7.4, 1 mg/mL BSA; steady-state 1:1 Langmuir fit

UniProt P55899, sequence (P55899 whole entry, looked up, tested part not stated): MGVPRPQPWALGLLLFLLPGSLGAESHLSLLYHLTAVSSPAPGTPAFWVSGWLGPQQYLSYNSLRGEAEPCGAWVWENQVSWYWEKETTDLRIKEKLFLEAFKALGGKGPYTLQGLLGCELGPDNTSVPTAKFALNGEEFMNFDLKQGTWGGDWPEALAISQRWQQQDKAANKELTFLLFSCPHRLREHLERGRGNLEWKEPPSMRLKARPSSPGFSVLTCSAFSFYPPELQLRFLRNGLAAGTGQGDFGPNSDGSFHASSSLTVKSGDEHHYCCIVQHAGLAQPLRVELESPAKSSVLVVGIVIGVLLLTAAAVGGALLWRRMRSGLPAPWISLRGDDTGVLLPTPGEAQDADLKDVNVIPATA
UniProt Q8SPV9, sequence (Q8SPV9 whole entry, looked up, the tested form may be a part): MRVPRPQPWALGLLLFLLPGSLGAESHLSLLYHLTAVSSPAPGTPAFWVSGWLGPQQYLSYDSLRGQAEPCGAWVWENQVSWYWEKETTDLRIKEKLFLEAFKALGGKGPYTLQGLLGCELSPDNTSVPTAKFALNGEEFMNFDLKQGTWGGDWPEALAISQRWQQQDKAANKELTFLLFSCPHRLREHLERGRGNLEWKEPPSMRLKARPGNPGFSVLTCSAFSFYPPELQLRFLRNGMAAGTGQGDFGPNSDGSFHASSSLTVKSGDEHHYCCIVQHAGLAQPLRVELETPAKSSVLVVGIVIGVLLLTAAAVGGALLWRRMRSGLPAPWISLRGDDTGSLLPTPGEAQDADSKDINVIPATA

Kd (human FcRn (human)) [nM]	Kd [1] [nM]	Kd [2] [nM]	Substance
1040	426	–	PF-07209960, anti-human PD-1–IL15 mutein fusion protein
–	–	2400	monkey IL-2Rβ (from UniProt Q38J85 27-551) (receptor)
–	–	4000	human IL-2Rβ (from UniProt P14784 27-551) (receptor)
